In patent publication US20130122568 one finds activity (fidelity index) data, which are given here for one substance.

Some results are limits rather than exact numbers.

Common to all, as to experiment: cleavage_in_vitro
The target of series [1] is T1, BamHI-HF E163A/E167T (Bacillus amyloliquefaciens) (UniProt P23940).
T1 sequence: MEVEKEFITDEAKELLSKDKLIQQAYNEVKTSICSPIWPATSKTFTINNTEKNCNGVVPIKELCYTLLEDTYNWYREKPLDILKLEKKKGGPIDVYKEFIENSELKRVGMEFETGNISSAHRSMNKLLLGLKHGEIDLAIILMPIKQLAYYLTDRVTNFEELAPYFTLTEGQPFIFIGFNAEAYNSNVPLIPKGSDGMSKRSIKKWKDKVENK
Particulars: NEB1, 37 C.

For series [2], the system named is BstXI-HF N65A. Particulars: NEB2, 55 C.
For series [3], the system named is T2, BspQI (Bacillus sphaericus).
T2 sequence: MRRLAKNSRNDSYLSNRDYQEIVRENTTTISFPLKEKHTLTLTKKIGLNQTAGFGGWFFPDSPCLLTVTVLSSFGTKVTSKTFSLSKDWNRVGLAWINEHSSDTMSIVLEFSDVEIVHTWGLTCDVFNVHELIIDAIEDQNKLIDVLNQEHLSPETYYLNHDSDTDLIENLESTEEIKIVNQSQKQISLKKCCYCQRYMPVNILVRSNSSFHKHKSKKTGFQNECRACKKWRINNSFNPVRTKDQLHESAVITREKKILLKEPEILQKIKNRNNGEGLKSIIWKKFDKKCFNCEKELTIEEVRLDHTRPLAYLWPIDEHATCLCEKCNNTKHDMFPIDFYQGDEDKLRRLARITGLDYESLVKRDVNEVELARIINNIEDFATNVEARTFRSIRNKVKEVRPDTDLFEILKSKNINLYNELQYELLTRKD
Particulars: NEB3, 50 C.

The target of series [4] is T3, HindIII (Haemophilus influenzae Rd) (UniProt P43870).
T3 sequence: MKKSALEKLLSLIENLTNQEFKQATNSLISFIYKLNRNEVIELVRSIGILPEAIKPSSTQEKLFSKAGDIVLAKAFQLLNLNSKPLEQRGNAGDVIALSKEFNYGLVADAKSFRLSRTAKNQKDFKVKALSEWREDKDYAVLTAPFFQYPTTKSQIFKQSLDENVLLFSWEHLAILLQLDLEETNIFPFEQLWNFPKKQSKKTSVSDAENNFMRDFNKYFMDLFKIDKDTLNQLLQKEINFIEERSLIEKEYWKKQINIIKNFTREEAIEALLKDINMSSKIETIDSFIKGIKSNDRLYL
The settings on record: NEB2, 37 C.

The target of series [5] is T4, PstI (Providencia stuartii 164) (UniProt P00640).
T4 sequence: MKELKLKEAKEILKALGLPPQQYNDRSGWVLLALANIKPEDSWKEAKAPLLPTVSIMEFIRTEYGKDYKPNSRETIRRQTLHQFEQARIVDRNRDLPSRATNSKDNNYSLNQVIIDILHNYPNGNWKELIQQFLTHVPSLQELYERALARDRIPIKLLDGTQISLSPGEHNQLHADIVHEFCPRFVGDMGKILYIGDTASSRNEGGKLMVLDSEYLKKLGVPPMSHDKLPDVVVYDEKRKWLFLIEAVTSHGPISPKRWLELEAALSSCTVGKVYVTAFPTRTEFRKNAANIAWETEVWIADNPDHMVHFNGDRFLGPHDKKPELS
Particulars: NEB3, 37 C.

In series [6] the test system is T5, SspI (Sphaerotilus species).
T5 sequence: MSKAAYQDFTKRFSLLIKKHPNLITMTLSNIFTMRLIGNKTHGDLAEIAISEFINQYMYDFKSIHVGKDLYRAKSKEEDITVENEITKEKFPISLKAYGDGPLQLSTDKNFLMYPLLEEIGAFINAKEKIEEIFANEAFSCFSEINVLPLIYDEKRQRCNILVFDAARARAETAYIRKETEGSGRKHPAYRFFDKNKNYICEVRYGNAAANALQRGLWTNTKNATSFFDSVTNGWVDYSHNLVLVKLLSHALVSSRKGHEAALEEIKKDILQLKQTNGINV
The settings on record: NEB1, 37 C.

Series [7] concerns T6, SphI (Streptomyces phaeochromogenes).
T6 sequence: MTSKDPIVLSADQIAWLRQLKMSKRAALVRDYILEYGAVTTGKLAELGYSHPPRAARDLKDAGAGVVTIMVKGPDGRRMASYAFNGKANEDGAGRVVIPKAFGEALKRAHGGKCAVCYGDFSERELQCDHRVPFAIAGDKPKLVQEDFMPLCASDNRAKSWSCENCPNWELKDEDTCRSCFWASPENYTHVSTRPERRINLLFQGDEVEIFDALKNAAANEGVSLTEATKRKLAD
Particulars: NEB1, 37 C.

As to lambda phage DNA, the activity (fidelity index) was greater than 4000 in series [1]; greater than 250 in series [2]; 32 in series [3]; 250 in series [4]; 120 in series [5]; 64 in series [6]. Further, the activity (fidelity index) in series [7] stood at 64.
